Laboratory results from publication PMC3714218 (Current biology : CB, 2013).
Like-named read-outs stand apart in the source and are kept apart here.

What was measured:
[1] = biological target: T1, yeast Arp2/3 complex (yeast, UniProt P32381 1-391; P47117 1-449; P38328 1-384; P53731 1-342; Q05933 1-178; P33204 …); experiment: fluorescence polarisation
[2] = biological target: T1, yeast Arp2/3 complex; experiment: AUC
[3] = biological target: T1, yeast Arp2/3 complex; experiment: fluorescence polarisation; remark: listed apart in the source
[4] = biological target: ArpC1/Arc40 (subunit of yeast Arp2/3 complex) (yeast, UniProt P38328 1-384); experiment: cross-linking
[5] = biological target: Arp3 (subunit of yeast Arp2/3 complex) (yeast, UniProt P47117 1-449); experiment: cross-linking
Chain of Arp3 (subunit of yeast Arp2/3 complex) (P47117 whole entry, one chain of several): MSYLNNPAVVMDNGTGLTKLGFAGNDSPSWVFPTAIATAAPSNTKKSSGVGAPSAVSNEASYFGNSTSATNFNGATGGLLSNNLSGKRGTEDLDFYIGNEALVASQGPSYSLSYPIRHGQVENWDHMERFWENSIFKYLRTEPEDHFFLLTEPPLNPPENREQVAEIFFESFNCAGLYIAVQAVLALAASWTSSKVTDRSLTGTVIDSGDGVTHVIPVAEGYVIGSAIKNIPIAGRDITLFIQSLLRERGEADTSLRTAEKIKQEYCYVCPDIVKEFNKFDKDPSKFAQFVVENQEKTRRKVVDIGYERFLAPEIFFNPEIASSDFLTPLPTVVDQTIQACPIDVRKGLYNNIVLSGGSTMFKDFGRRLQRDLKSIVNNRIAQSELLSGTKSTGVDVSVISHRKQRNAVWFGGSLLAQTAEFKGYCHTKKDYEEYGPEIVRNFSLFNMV

Chain of ArpC1/Arc40 (subunit of yeast Arp2/3 complex) (P38328 whole entry, one chain of several): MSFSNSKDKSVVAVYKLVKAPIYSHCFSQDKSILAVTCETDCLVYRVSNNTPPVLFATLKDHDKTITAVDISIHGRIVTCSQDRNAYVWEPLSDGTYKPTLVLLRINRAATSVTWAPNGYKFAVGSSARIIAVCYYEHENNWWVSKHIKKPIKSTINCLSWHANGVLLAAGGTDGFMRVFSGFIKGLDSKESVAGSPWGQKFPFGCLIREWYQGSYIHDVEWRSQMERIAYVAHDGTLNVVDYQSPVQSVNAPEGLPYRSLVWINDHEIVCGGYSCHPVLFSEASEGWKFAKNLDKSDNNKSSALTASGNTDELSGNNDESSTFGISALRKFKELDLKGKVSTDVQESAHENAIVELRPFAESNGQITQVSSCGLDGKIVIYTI

Binder	Kd [1] [µM]	KD of the first binding site [2] [µM]	KD of the second binding site [2] [µM]	stoichiometry N [2]	Kd [3] [µM]	binding result [4]	binding result [5]
Gmf1-GFP (natural protein, S. cerevisiae, UniProt Q12156 1-149, looked up) MSNLYKIGTETRNKIKKFRTSTARTDSIKALSIKIEPKPSYEIIVDEDEQEELDEIEDLSELAEILPDNSPRFVLTAYPTTTKDGFKQTPLVLVYWKPMTVVSQEWKMLYAGALEMIREECGTFKLIEVSSGLEDDSDVEELREQLENC	0.013 ± 0.002	< 0.03	~2	~2 Gmf1-GFP per Arp2/3 complex	–	–	–
wild-type Gmf1 (untagged) (natural protein, S. cerevisiae, UniProt Q12156 1-149, looked up) MSNLYKIGTETRNKIKKFRTSTARTDSIKALSIKIEPKPSYEIIVDEDEQEELDEIEDLSELAEILPDNSPRFVLTAYPTTTKDGFKQTPLVLVYWKPMTVVSQEWKMLYAGALEMIREECGTFKLIEVSSGLEDDSDVEELREQLENC	–	–	–	–	0.01 ± 0.003	binds	binds
